Test results published in paper PMC3314502.

Target: FLAG-PICK1 (rat) (UniProt Q9EP80)
Experiment: pull-down

Chain of UniProt Q9EP80 (Q9EP80 whole entry): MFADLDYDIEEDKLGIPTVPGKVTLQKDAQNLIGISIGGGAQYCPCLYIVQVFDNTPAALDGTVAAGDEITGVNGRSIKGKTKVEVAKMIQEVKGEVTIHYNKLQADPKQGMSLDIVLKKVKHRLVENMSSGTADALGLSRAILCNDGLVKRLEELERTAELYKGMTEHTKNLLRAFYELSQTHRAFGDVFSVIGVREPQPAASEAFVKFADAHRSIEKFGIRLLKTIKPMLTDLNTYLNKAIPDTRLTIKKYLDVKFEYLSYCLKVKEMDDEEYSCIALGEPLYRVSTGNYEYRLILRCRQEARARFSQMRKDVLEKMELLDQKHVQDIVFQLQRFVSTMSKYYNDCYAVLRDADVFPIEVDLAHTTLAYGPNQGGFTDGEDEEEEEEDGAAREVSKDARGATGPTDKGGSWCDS

percent of PICK1 retained by GST-ct-GluR5 (2b) with the peptide: 8%
Substance: pep2-EVKI, point mutant of the C-terminal 11 amino acids of GluR2 (from UniProt P19491 873-883) (peptide)
